Results: patent US20210338833A1 (MIT, published 2021)
Ends that are not written are not given here. * marks the point of attachment. Biotin = O=C1N[C@H]2[C@H](CS[C@H]2CCCCC(=O)*)N1

B1: biotinylated F12 derivative GGSGGGGSASRICPWNCKEL (peptide)
peptide: Biotin-GGSGGGGSASRICPWNCKEL
modifications: not fully specified (bridges); cysteine pairing not given here
notes: Free peptide loaded on a streptavidin coated plate for ELISA
B2: biotinylated F12 derivative GGGSASRICPWNCKEL (peptide)
peptide: Biotin-GGGSASRICPWNCKEL
modifications: not fully specified (bridges); cysteine pairing not given here
notes: as for B1
B3: biotinylated F12 derivative GSGGGGSGGGGSASRICPWNCKEL (peptide)
peptide: Biotin-GSGGGGSGGGGSASRICPWNCKEL
modifications: not fully specified (bridges); cysteine pairing not given here
notes: as for B1
B4: biotinylated F12 derivative SASRICPWNCKEL (peptide)
peptide: Biotin-SASRICPWNCKEL
modifications: not fully specified (bridges); cysteine pairing not given here
notes: as for B1
B5: biotinylated F12 derivative GGGGSGGGGSGGGGSASRICPWNCKEL (peptide)
peptide: Biotin-GGGGSGGGGSGGGGSASRICPWNCKEL
modifications: not fully specified (bridges); cysteine pairing not given here
notes: as for B1
B6: FMC63 Mimotope (H1) RVCPWSCMPI (peptide)
peptide: RVCPWSCMPI
notes: Not the 1D3 mimotope that is also called H1

The binders below were run against T1, FMC63 IgG (assay: ELISA, N-terminally biotinylated peptide on streptavidin plate, FMC63 IgG).
T1 construct: Murine monoclonal antibody to human CD19; also called FMC63 IgG antibody; biotinylated FMC63 IgG
T1 sequence (VH, as listed by the source, chain 1 of 2): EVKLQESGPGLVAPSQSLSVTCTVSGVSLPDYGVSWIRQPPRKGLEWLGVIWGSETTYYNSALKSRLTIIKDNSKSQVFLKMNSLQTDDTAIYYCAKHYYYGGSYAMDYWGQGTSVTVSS
T1 sequence (VL, as listed by the source, chain 2 of 2): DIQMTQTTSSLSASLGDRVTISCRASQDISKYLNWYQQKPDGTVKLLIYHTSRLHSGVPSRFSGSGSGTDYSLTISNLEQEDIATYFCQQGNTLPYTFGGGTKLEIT
With B1 the Kd was 0.139 nM. B2 showed a Kd of 0.141 nM. B3 was tested, and the Kd was 0.134 nM. Binder B4 has a Kd of 0.147 nM. Binder B5 has a Kd of 0.153 nM.

Each binder was assayed against T2, FMC63 scFv (biotinylated) (assay: flow cytometry (MFI) of yeast clone with biotinylated FMC63 scFv and streptavidin-PE).
T2 construct: Whole scFv entry (VL-(G4S)3-VH); also called FMC63-scFv monomer; biotinylated FMC63 scFv
T2 sequence (scFv, as listed by the source): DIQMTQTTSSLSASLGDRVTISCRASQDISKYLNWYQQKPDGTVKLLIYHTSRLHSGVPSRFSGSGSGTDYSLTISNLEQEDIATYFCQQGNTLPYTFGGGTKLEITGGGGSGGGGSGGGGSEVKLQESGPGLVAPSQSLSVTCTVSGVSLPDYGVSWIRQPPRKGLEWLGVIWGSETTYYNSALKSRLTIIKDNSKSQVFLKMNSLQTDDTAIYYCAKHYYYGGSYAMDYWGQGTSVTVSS
Work on AGTRICPWNCKELYWLPDE [FMC63 mimotope K-D11 AGTRICPWNCKELYWLPDE] yielded a Kd of 15.9 nM. QFQRICPWNCKELYWLPDQ [FMC63 mimotope K-F5 QFQRICPWNCKELYWLPDQ] gave a Kd of 13.2 nM. In the case of RICPWNCKELYWLPDE [FMC63 mimotope K-A11 RICPWNCKELYWLPDE], the Kd is reported as 16.8 nM. Work on RICPWNCKELPSPPRIFGNR [FMC63 mimotope K-C2 RICPWNCKELPSPPRIFGNR] yielded a Kd of 14.8 nM. With RICPWNCKELPTPYMMFDM [FMC63 mimotope K-A3 RICPWNCKELPTPYMMFDM] the Kd was 22.1 nM. In the case of PLSRICPWNCKELYWLPQR [FMC63 mimotope K-A5 PLSRICPWNCKELYWLPQR], the Kd is reported as 12.8 nM. Binder RICPWNCKEL (also called F12 mimotope) [FMC63 Mimotope (F12) RICPWNCKEL] has a Kd of 45.5 nM. In the case of AKRRERDYVGRICPWNCKELHPDTRHRIPV [FMC63 mimotope K-A10 AKRRERDYVGRICPWNCKELHPDTRHRIPV], the Kd is reported as 18.7 nM. Work on PPPRICPWNCKELPLDWPW [FMC63 mimotope K-B5 PPPRICPWNCKELPLDWPW] yielded a Kd of 23.8 nM.

What follows are binders tested against T1, FMC63 IgG (assay: yeast display FACS selection with biotinylated FMC63 IgG, second sort).
Excerpt: (§1) As in Example 1, a yeast library was generated using nested PCR and the primers in Table 3.
RLCPWSCIKL [FMC63 Mimotope RLCPWSCIKL]: binds. RICPWSCVKQ [FMC63 Mimotope RICPWSCVKQ]: binds. RLCPWSCIPF [FMC63 Mimotope RLCPWSCIPF]: binds. RLCPWSCLEI [FMC63 Mimotope RLCPWSCLEI]: binds. RICPWGCKEL [FMC63 Mimotope RICPWGCKEL]: binds. RLCPWSCVEQ [FMC63 Mimotope RLCPWSCVEQ]: binds. RLCPWNCQEL [FMC63 Mimotope RLCPWNCQEL]: binds. RICPWSCVEL [FMC63 Mimotope RICPWSCVEL]: binds. RICPWSCRPL [FMC63 Mimotope RICPWSCRPL]: binds. RLCPWNCRQL [FMC63 Mimotope RLCPWNCRQL]: binds. RLCPWNCSEL [FMC63 Mimotope RLCPWNCSEL]: binds. RICPWSCMEL [FMC63 Mimotope RICPWSCMEL]: binds. RLCPWDCKEL [FMC63 Mimotope RLCPWDCKEL]: binds. RMCPWNCREL [FMC63 Mimotope RMCPWNCREL]: binds. RICPWSCIEL [FMC63 Mimotope RICPWSCIEL]: binds. RLCPWKCREL [FMC63 Mimotope RLCPWKCREL]: binds. RICPWDCKPI [FMC63 Mimotope RICPWDCKPI]: binds.

These binders were tested against T1, FMC63 IgG (assay: flow cytometry of yeast-displayed mutant with 5 µM FMC63 IgG).
Description: Specifically, a representative mimotope, […] […] To generate mutations, two complementary oligos with the codon replaced at the desired site were denatured at 95° C. and annealed by slow cooling to 25° C. (decreasing by 0.5° C./second). The annealed oligos were treated with T4 PNK (T4 Polynucleotide Kinase) to add a terminal phosphate, and then ligated into digested pCT-CON2 vector. Positive clones having the correct oligo inserted were tested and transformed into competent EBY100 yeast cells.
RLCPWSCAEL (also called G9 X3 (Arg 8) to Ala) [FMC63 Mimotope Mutant RLCPWSCAEL]: binds. RACPWSCREL (also called G9 X1 (Leu 2) to Ala) [FMC63 Mimotope Mutant RACPWSCREL]: binds. RLCPWSCREA (also called G9 X5 (Leu 10) to Ala) [FMC63 Mimotope Mutant RLCPWSCREA]: binds. RLCPWACREL (also called G9 X2 (Ser 6) to Ala) [FMC63 Mimotope Mutant RLCPWACREL]: binds. RLCPWSCRAL (also called G9 X4 (Glu 9) to Ala) [FMC63 Mimotope Mutant RLCPWSCRAL]: binds.

What follows are binders tested against T3, anti-mCD19 (clone 1D3) IgG (assay: yeast display selection with 1D3 IgG).
T3 construct: Anti-mouse CD19 IgG; biotinylated for sorting; also called 1D3 antibody; anti-mCD19 IgG
T3 sequence (VH, as listed by the source, chain 1 of 2): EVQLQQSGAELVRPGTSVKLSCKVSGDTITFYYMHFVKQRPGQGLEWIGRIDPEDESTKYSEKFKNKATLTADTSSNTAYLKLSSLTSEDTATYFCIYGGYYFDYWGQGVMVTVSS
T3 sequence (VL, as listed by the source, chain 2 of 2): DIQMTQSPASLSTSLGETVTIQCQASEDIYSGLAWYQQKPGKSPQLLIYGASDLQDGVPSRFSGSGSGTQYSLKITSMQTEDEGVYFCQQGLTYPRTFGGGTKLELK
Description: Specifically, a library was generated using nested PCR and the primers in Table 1. […] For each round of enrichment, the top 0.5-1% of yeast were sorted. Following enrichment, isolated clones were subjected to Sanger sequencing. […] To further characterize the mimotope affinity, absolute binding affinity was measured by ELISA. Specifically, three mimotopes were selected for screening (Table 8). Of the selected sequences, two fusion mimotopes were chemically synthesized. Specifically, two mimotopes were fused to form a 20 amino acid peptide (Table 9).
SKLKGKSGPE [1D3 Mimotope (H1) SKLKGKSGPE]: binds.

What follows are binders tested against T1, FMC63 IgG (assay: yeast-display FACS (MFI) titration with biotinylated FMC63 IgG, 0.01-1000 nM).
For RLCPWACQEQ [FMC63 Mimotope (C7) RLCPWACQEQ], the Kd was 252 nM. With RMCPWSCYEL [FMC63 Mimotope (C5) RMCPWSCYEL] the Kd was 322 nM. RLCPWSCVPI [FMC63 Mimotope (E6) RLCPWSCVPI] was tested, and the Kd was 102 nM. Binder RMCPWSCRPH [FMC63 Mimotope (A8) RMCPWSCRPH] has a Kd of 397 nM. With RLCPWSCREL (Parent of the alanine scan) [FMC63 Mimotope (G9) RLCPWSCREL] the Kd was 25.7 nM. Binder RLCPWDCREL [FMC63 Mimotope (F8) RLCPWDCREL] has a Kd of 10.6 nM. In the case of RICPWACVEL [FMC63 Mimotope (H8) RICPWACVEL], the Kd is reported as 9.5 nM. Work on RLCPWNCREL [FMC63 Mimotope (G11) RLCPWNCREL] yielded a Kd of 18.2 nM. For RICPWSCREL [FMC63 Mimotope (H11) RICPWSCREL], the Kd was 10.3 nM. In the case of RRCPWSCKKQ [FMC63 Mimotope (A12) RRCPWSCKKQ], the Kd is reported as 540 nM. B6 gave a Kd of 199 nM. RICPWSCMVV [FMC63 Mimotope (B7) RICPWSCMVV] showed a Kd of 376 nM.

These binders were tested against T2, FMC63 scFv (assay: yeast-display FACS titration with biotinylated FMC63 scFv).
RLCPWACQEQ [FMC63 Mimotope (C7) RLCPWACQEQ] showed a Kd of 219 nM. RMCPWSCYEL [FMC63 Mimotope (C5) RMCPWSCYEL] gave a Kd of 238 nM. With RICPWNCKEL (also called F12 mimotope) [FMC63 Mimotope (F12) RICPWNCKEL] the Kd was 42 nM. RLCPWSCVPI [FMC63 Mimotope (E6) RLCPWSCVPI] gave a Kd of 126 nM. RLCPWSCREL (Parent of the alanine scan) [FMC63 Mimotope (G9) RLCPWSCREL] showed a Kd of 50.6 nM. Binder RLCPWDCREL [FMC63 Mimotope (F8) RLCPWDCREL] has a Kd of 41.5 nM. Work on RICPWACVEL [FMC63 Mimotope (H8) RICPWACVEL] yielded a Kd of 38.9 nM. Binder RLCPWNCREL [FMC63 Mimotope (G11) RLCPWNCREL] has a Kd of 38.4 nM. For RICPWSCREL [FMC63 Mimotope (H11) RICPWSCREL], the Kd was 38.6 nM. With RRCPWSCKKQ [FMC63 Mimotope (A12) RRCPWSCKKQ] the Kd was 240 nM. B6 showed a Kd of 178 nM.

These binders were tested against T1, FMC63 IgG (assay: yeast display FACS selection with biotinylated FMC63 IgG, first sort).
Excerpt: as §1
RLCPWHCAII [FMC63 Mimotope RLCPWHCAII]: binds. RLCPWDCLIL [FMC63 Mimotope RLCPWDCLIL]: binds. RLCPWSCMPR [FMC63 Mimotope RLCPWSCMPR]: binds. RLCPWECRVL [FMC63 Mimotope RLCPWECRVL]: binds. RVCPWSCVEQ [FMC63 Mimotope RVCPWSCVEQ]: binds. RLCPWACRQL [FMC63 Mimotope RLCPWACRQL]: binds. RICPWACLSL [FMC63 Mimotope RICPWACLSL]: binds. RICPWNCSKL [FMC63 Mimotope RICPWNCSKL]: binds. RLCPWNCIHW [FMC63 Mimotope RLCPWNCIHW]: binds.
